This note sets out measurements from the nanobody polyreactivity screen of Harvey et al. (2022).

The series is described as follows: yeast display, Sf9 membrane polyspecificity reagent, FACS + sequencing; frameworks hold sequencing errors. Summed up: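 Synthetic nanobody libraries on Saccharomyces cerevisiae BJ5465 were galactose-induced for 36–48 hours, stained 1 hour at 4 °C with 10% biotinylated, detergent-solubilized Sf9 membrane reagent and enriched on streptavidin microbeads. FACS then separated cells into low and high (top ~1%) gates by anti-HA (expression) and streptavidin (reagent binding) fluorescence. Genes were colony-PCR amplified, MiSeq 2 × 250 sequenced and CDR-length filtered. A clone's polyreactivity label is that of its gate of origin.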
On to “QVQLVESGGGLVQAGGSLRLSCAASGLISHNNAMGWYRQAPGKEREFVAAITTTGSSTYYADSVKGRFTISRDNEKNTVYLQMNSLKPEDTAVYYCAAESVPSRSEMDYWGQGTQVTVSS”, for which the “polyreactivity (PSR sort gate)” value is given as “low polyreactivity”. The value for “QVLLVESGGGLVQAGGSLRLSCAATGSTFIRNAMGWYSQAPGKERELVAVISSGGSTYYADSVKGRFTISREIAKNTVYLQMNSLKPEDTAVYYCPAGDPQKEDYWGQGTQVTVSS” was “low polyreactivity”; that for “LVQLVESGGCLVQAGGSLRVSCAASGTIFQIKAMGWYRQAPGIEREKVATIRWRGSSTYYADSVKGRFTISRDNAKNTVYLQKNSLKPEDTAVYYSAARAGTLNSGGYYSWGQGTQVSVSS” was “high polyreactivity”; that for “QVQLVESGGGLVQAGGSLRLSCAASGSIFPKYAMGWYRQAPGKERELVAAISRGGGSTYYADSVKGRFTISRDNAKNTVYLQMNSLKPEDTAVYYCAALFTPALSEYDYWGQGTQVTVSS” was “high polyreactivity”. The value for “QVQLVESGGGLVQAGGSLRLSCAASGRTFDVYAMGWYRQAPGKERELVATISRSGGSTYYADSVKGRFTISRDNAKNTVYLQMNSLKPEDTAVYYCAARKRSPPYGYWGQGTQVTVSS” was “high polyreactivity”.

For “QVQLVESGGGLVQAGGSLRLSCAASGSIFFQNAMGWYRQAPGKESEFVAAITWRGASTYYADSVKGRFTISRDNATNTVYLQMNSLKPEDTAVYYCAARQHYYYGWYYYWGQGTQVTVSS”, the “polyreactivity (PSR sort gate)” value is recorded as “high polyreactivity”. As for “QVQLVESGGGLVQAGGSLRLSCAASGSTLKYYTMGWYRQAPGKERELVAAISWSGGRTYYADSVKGRFTISRDNAKNTVYLQMNCLKPEDTAVYYCAKYPGYRSSGRISYEYDYWGQGTQVTVSS”, the “polyreactivity (PSR sort gate)” value was “high polyreactivity”.

Regarding “QVQLVESGGGLVQAGGSLRLSCAASGIIFYWYAMGRYRQAPGKERELVATINSTGGSTNYADSVKVRFTISRDNAKNTVYLQMNSLKPEDTAVYYCAKDWNDDQHSWDTPFDYWGQGTQVTVSS”, the “polyreactivity (PSR sort gate)” value is “low polyreactivity”. The value for “QVQLVETGGGLVQAGGSLRLSCAASGIFVSYAMGWYRQAPGKERELVAAIRYSGDSTYYADSVKGRFTISRDNAKNTVYLQMNSLKPEDTAVYYCAATKGWSRYEYWGQGTQVTVSS” was “low polyreactivity”; that for “QVQLVESGGGLVQAGGSLRLSCAACGITFPTNMGWYRQAPGKERELVAAIRLSGGSTSYADSVKGRFTISRDNAKNSVYLQMTSLKPEDTAVSSCAAGGYPGGEDYWGQGTQVTVSS” was “low polyreactivity”; that for “QVQLVESGGGLVQAGGSLRLSCAASGYIFSVYAMGWYRQAPGKERELVAAISSGGSTYYADSVKGRFTISRDNAKNTVYLQMNSLKPEDTAVYYCAAESEYVYWYYVDYDYWGQGTQVTVSS” was “high polyreactivity”. The value for “QVQLVESGGGLVQAGGSLRLSCAASGRTFTSYAMGWYRQAPGKERELVATISTGGSTNYADSVKGRFTISRDNAKNTVYFQMNSLKPEDTAVYYCAAQVDGKRQYYRYDYWGQGTQVTVSS” was “low polyreactivity”; that for “QVQLVESGGGLVQAGGSLRLSCAASGRTFARNAMGRYRQAPVKERELVAVISKGGSRTYYADSVKGRFTISRDNEKNTVYLQMNSLKPEDTAVYYCAARHYVTRDESYDYWGQVTQVTVSS” was “high polyreactivity”.

For “QVQLVESGGGLVQAGGSLRLTCAASGITFGVYAMGGYRQAPGKERELVAAITRGGRTYYADSVKGRFTISRDNAKNTVYLQMNSLKPVDTAVYYCAAGFWWSSYGYWGQGTQVTVSS”, the “polyreactivity (PSR sort gate)” value is “high polyreactivity”. With “QVQIVESGGGLVQPGCSLRLSCAASGRIFYGYAMGLYRQSPGKERELVAAITSTRGRTYYADSVKGRFTISRDNAKNTFYLQMNSLKPEDSAVYYCAKRGYTRWGLDYWGQGTQVTVSS”, the “polyreactivity (PSR sort gate)” value is reported as “high polyreactivity”. The result for “QVQLVESGGGLVQAGGSLRLSCAASGSIFPPNAMGWYRQAPGKERELVAGISQSGGSTYYADSVKGRFTISRDNAKNTVYLQMNSLKPEDTAVYYCARRSRVGYPLDSWGQGTQVTVSS” reads “high polyreactivity”.

For “QVHLVESGGGLFQAGGSLRLSCAASGSTFTDYDMGWYRQAPGKDRELVASITSGGSTNYADSVKGRFTISRDNAKNTVYLQMNSLKPEDTAVYYGAAADADRKYDYWGQGTQVTVSS”, the “polyreactivity (PSR sort gate)” value is “low polyreactivity”. The result for “QVQLVESGGGLVQAGGSLRLSCAASGFIFHPNTMGWYRPAPGKERELVAGISYSGGITYTDSVKGRFTISRDNAKNTVYLQMNSLQPEDTAVYYFNARTKVAYYRHYYWGQGTQVTVSS” reads “low polyreactivity”; that for “QVQLVESGGGLVQAGGSHRLSCAASGITLGRYAMGWYRQAPGKEREFVAAISSWSGGSTTYADSVKGRFTISRDNAKNTVYLQMNSLKPEDTAVYYWNARRYYGRYYLGHSDYDYWGQGTQVTVSS”, “high polyreactivity”; that for “QVQIVESGGGLVQAGGSLRLSCAASGSTFPWYVMGWYRQAPGKERELVAAISWSGGRTYYADSVKGRFTISRDNAKNTVYLQMTRLKPEDRAVYYCAAEFKLVSHTYYYWGQGTQVTVSS”, “low polyreactivity”. The value for “QVQLVASGGALVQAGGSLRLSCAASGFIFDYYAMGRYRPAPGKERELVAAITSRSGSTYYADSVKGRFTISRDNAKNTVYLQMNSLKPEDTAVYYCARRFKYGSTAWRFYYWGQGTQVTVSS” was “high polyreactivity”; that for “QVQLVESGGGLVQAGGSLRLSCAASGSTFSRYAMGWYRQAPGKERELVAAISWSGGRTNYADSVKGRFTISRDNAKNTVYLQMNSLKPEDTAVYYCNAPFRHRYRVDYWGQGTQVTVSS” was “high polyreactivity”. The value for “QVQLVESGGGLVQAGGSLRLSCAASGSIFQKYTMGWYRQAPGKERELVAAITRSGGSTYYADSVKGRFTISRDNAKNTVYLQMNSLKPEDSAVYYCNKRYIPWAYDYWGQGTQVTVSS” was “high polyreactivity”; that for “QVQLVESGGGLVQAGGSLRLSCAASGGIFIFYAMGWYRQAPGKERELVAAISNVSSTNYADSVKGRFTISRDNAKNTVYLQMNSLKPEDTAVYYCNAVGVPSEYYSWGQGTQVTVSS” was “low polyreactivity”; that for “QVQLVESGGGLVQAGGSLRLSCAASGSILRQYAMGWYRQAPGKERELVATITGDGSTNYADSVKGRFTISRDNAKNTVYLQMNSLKPEDTAVYYCNAELPVHWSWYDYWGQGTQVTVSS” was “low polyreactivity”. On to “QVQLVESGGGLVQAGGSLRLSCAASGITFGWYAMGWYRQAPGKERELVAAISGRGGRTYYADSVKGRFTISRDNAKYTVYLQMNSLKPEVTAVYYCAARARRWSYITGSYVLIEYEYWGQGTQVTVSS”, for which the “polyreactivity (PSR sort gate)” value is reported as “high polyreactivity”. Regarding “QVQLVESGGGLVQAGGSLRLSCAASGLTFTGYFMGWYRQAPGKERELVAAISYSGSSTYYADSVKGRFTISRDNAKNTVYLQMNSLKQEDTAVYYCAATSHAYYPRYYYWGQGTQVTVSS”, the “polyreactivity (PSR sort gate)” value is listed as “high polyreactivity”. The value for “QVQLVESGGGLVQAGGSLRLSCAASGFIFPYYARGWYRQAPGKERELVAGITGADSTYYADSVKGRFTISRDNAKNTVYLQMNSLKPEDTAVYYCARKRYSLSRTYNYGYWGQGTQVTVSS” was “high polyreactivity”; that for “QVQLVESGGGLVQAGGSLRLSCAASGYTFPLYAMGWYRQAPGKERELVATISSSGSRTYYADSVKGRFTISRDNAKNTVYLQMNSLKPEDTAVYYCAARYRAYVKLTSYDWGQGTQVTVSS” was “high polyreactivity”; that for “QVQLVESGGGLVQAGGSLRLSCASSGRIFDGNAMGWYRQAPGKERELVAAISWTGGSTYYADSVKGRFTISRDNAKNTVYLQMYSLKPVDTAVYYCAADSGWWLDQWSWYDYWGLGTQVTVSS” was “low polyreactivity”. With “QVQLVESGGGFVQAGGSLRLSCAASGFIFDTYAMGWYRQAPGKERELVAAITTTGGSTYYADSVKGRFTISRDTAKNTVYLQMNSLKPEDTAVYYCAARHYRIHYDYWGQGSQVTVSS”, the “polyreactivity (PSR sort gate)” value is given as “high polyreactivity”. The value for “QVQLVESGGGLVQAGGSLRLSCAASGSILEYYAMGWYRQAPGKERELVAGISSAGNTYYADSVKGRFTISRDNAKNTVYLQMNSLKPEDSAVYYCAAVPWSGEYDYWGQATQVTVSS” was “low polyreactivity”; that for “QVQLVESGGGLVQAGGSLRLSCAASGRTFKGNAMGWYRQAPGKEIELVAAISKSGGRTYYADSVKGRFTISRDNAKNTVYLQMNSLKPEDTAVYYCAVDVGPTKVRFGYLGQGTQVTVSS” was “high polyreactivity”; that for “QVQLVESGGGLVQAGGSLRLSCAASGSTFGEYAMGWYRQAPGKERELVASITFSAGSTDYADSVKGRFTISRDNAKNTVFLQMNSLKPEDTSVYYCAADGWWPWEYEYWGQGTQVTVSS” was “low polyreactivity”. The value for “PVQLVESGGGLVQAGGSLRLSCAASGRTFPFYGMGWYRQAPGKERELVAAISISGGSTYYADSVKGRFTISRDNAKNTVYVQMNSLKPEDTAVYYCAAVGPRSYGFGNGYWGQGTQVTVSS” was “high polyreactivity”; that for “QVQLVESGGGLVQAGGILRLSCAASGSIFGLYAMVWYRQAPGKERELVAAISPRGGSTYYADSVKGRFTISRDNAKNTVYLQMNILKPEDTAVYYCNRDYIRYALGHDYWGQGPQVTVSS” was “high polyreactivity”. The value for “QVQLVESGGGLVQAGGSLRLSCAASGFNFYSYAMGWYKQAPGKERELVAVTYADSVKGRFTISRDNAQNTVYLQMNSLKPEDTAVYYCAALEYLDGPLSDYWGQGTQVTVSS” was “low polyreactivity”; that for “QFQLVESGGGLVQAGGSLRLSCAASGRTFIVYAMGWYRQAPGKERELVAGITLGSTNYADSVKGRFTISRDNAKNTVYLQMNSLKPEDTAVYYCAARSSRRGPISEGDYWGQGTQVTVSS” was “high polyreactivity”; that for “QVQLVESGGGLVQAGGSLRLSCAASGFTFDYYAMGWYRQAPGKERELVAAINYSGGSTYYADSVKGRFTISRDNAKNTVYLQMNSLKPEDTAVYYCNAVGYSVFRRYNYWGQGTQVTVSS” was “high polyreactivity”.

In the case of “QVQLVESGGGLVQAGGSLRLSCAASGIIITYYTMGWYRQAPGKERELVAAIRWRGGSTYYADSVKGRFTISRDNAKNTVYLQMNSLKPEDTAVYYCNARSAFRSCGRDFLFDYWGQGTQVTGSS”, the “polyreactivity (PSR sort gate)” value is recorded as “high polyreactivity”. The value for “QVQLVESGAGLVQAGGSLRLSCAASGIIFTDYAMGWYRQAPGKERELVAANSSGGGSTYYADSVKGRFTISRDNAKNSVYLQLNSLKPDDTAVYDCAAQSSGSYGFDHWGQGTQVTVSS” was “high polyreactivity”.
